According to US20140087995A1 (published 2014):
Numbered stars: 1 amine (or outer) side, 2 acyl side, 3 side chain; on linkers, the order of the positions; unused ones are H or OH. Bridge positions count the residues as written; N and C are the ends. Side chains are listed from the residue outwards. Ends that are not written are not given here. * marks the point of attachment. C20 diacid = O=C(O)CCCCCCCCCCCCCCCCCCC(=O)*; γGlu = O=C(O)[C@H](CCC(=O)[*:2])N[*:1]

B1: N^ε1-[(4S)-4-carboxy-4-(19-carboxynonadecanoylamino)butanoyl]-[Glu14,Arg17,Pro21,Pro27,His34,Glu35]-h-amylin (peptide)
peptide: K([γGlu-C20 diacid])CNTATCATQRLAEFLRHSSPNFGAIPSSTNVGHETY-NH2
modifications: disulfide 2-7; N-terminus assumed
SMILES: CC[C@H](C)[C@H](NC(=O)[C@H](C)NC(=O)CNC(=O)[C@H](Cc1ccccc1)NC(=O)[C@H](CC(N)=O)NC(=O)[C@@H]1CCCN1C(=O)[C@H](CO)NC(=O)[C@H](CO)NC(=O)[C@H](Cc1c[nH]cn1)NC(=O)[C@H](CCCNC(=N)N)NC(=O)[C@H](CC(C)C)NC(=O)[C@H](Cc1ccccc1)NC(=O)[C@H](CCC(=O)O)NC(=O)[C@H](C)NC(=O)[C@H](CC(C)C)NC(=O)[C@H](CCCNC(=N)N)NC(=O)[C@H](CCC(N)=O)NC(=O)[C@@H](NC(=O)[C@H](C)NC(=O)[C@@H]1CSSC[C@H](NC(=O)[C@@H](N)CCCCNC(=O)CC[C@H](NC(=O)CCCCCCCCCCCCCCCCCCC(=O)O)C(=O)O)C(=O)N[C@@H](CC(N)=O)C(=O)N[C@@H]([C@@H](C)O)C(=O)N[C@@H](C)C(=O)N[C@@H]([C@@H](C)O)C(=O)N1)[C@@H](C)O)C(=O)N1CCC[C@H]1C(=O)N[C@@H](CO)C(=O)N[C@@H](CO)C(=O)N[C@H](C(=O)N[C@@H](CC(N)=O)C(=O)N[C@H](C(=O)NCC(=O)N[C@@H](Cc1c[nH]cn1)C(=O)N[C@@H](CCC(=O)O)C(=O)N[C@H](C(=O)N[C@@H](Cc1ccc(O)cc1)C(N)=O)[C@@H](C)O)C(C)C)[C@@H](C)O
notes: also called compound 107
B2: N^ε1-[(4S)-4-carboxy-4-(19-carboxynonadecanoylamino)butanoyl]-[Glu14,Arg17,Pro21,Pro27,Pro34,Pro37]-h-amylin (peptide)
peptide: K([γGlu-C20 diacid])CNTATCATQRLAEFLRHSSPNFGAIPSSTNVGPNTP-NH2
modifications: disulfide 2-7; N-terminus assumed
SMILES: CC[C@H](C)[C@H](NC(=O)[C@H](C)NC(=O)CNC(=O)[C@H](Cc1ccccc1)NC(=O)[C@H](CC(N)=O)NC(=O)[C@@H]1CCCN1C(=O)[C@H](CO)NC(=O)[C@H](CO)NC(=O)[C@H](Cc1c[nH]cn1)NC(=O)[C@H](CCCNC(=N)N)NC(=O)[C@H](CC(C)C)NC(=O)[C@H](Cc1ccccc1)NC(=O)[C@H](CCC(=O)O)NC(=O)[C@H](C)NC(=O)[C@H](CC(C)C)NC(=O)[C@H](CCCNC(=N)N)NC(=O)[C@H](CCC(N)=O)NC(=O)[C@@H](NC(=O)[C@H](C)NC(=O)[C@@H]1CSSC[C@H](NC(=O)[C@@H](N)CCCCNC(=O)CC[C@H](NC(=O)CCCCCCCCCCCCCCCCCCC(=O)O)C(=O)O)C(=O)N[C@@H](CC(N)=O)C(=O)N[C@@H]([C@@H](C)O)C(=O)N[C@@H](C)C(=O)N[C@@H]([C@@H](C)O)C(=O)N1)[C@@H](C)O)C(=O)N1CCC[C@H]1C(=O)N[C@@H](CO)C(=O)N[C@@H](CO)C(=O)N[C@H](C(=O)N[C@@H](CC(N)=O)C(=O)N[C@H](C(=O)NCC(=O)N1CCC[C@H]1C(=O)N[C@@H](CC(N)=O)C(=O)N[C@H](C(=O)N1CCC[C@H]1C(N)=O)[C@@H](C)O)C(C)C)[C@@H](C)O
B3: N^ε1-[(4S)-4-carboxy-4-(19-carboxynonadecanoylamino)butanoyl]-[His14,Arg17,Pro21,Pro27,Pro34,Pro37]-h-amylin (peptide)
peptide: K([γGlu-C20 diacid])CNTATCATQRLAHFLRHSSPNFGAIPSSTNVGPNTP-NH2
modifications: disulfide 2-7; N-terminus assumed
SMILES: CC[C@H](C)[C@H](NC(=O)[C@H](C)NC(=O)CNC(=O)[C@H](Cc1ccccc1)NC(=O)[C@H](CC(N)=O)NC(=O)[C@@H]1CCCN1C(=O)[C@H](CO)NC(=O)[C@H](CO)NC(=O)[C@H](Cc1c[nH]cn1)NC(=O)[C@H](CCCNC(=N)N)NC(=O)[C@H](CC(C)C)NC(=O)[C@H](Cc1ccccc1)NC(=O)[C@H](Cc1c[nH]cn1)NC(=O)[C@H](C)NC(=O)[C@H](CC(C)C)NC(=O)[C@H](CCCNC(=N)N)NC(=O)[C@H](CCC(N)=O)NC(=O)[C@@H](NC(=O)[C@H](C)NC(=O)[C@@H]1CSSC[C@H](NC(=O)[C@@H](N)CCCCNC(=O)CC[C@H](NC(=O)CCCCCCCCCCCCCCCCCCC(=O)O)C(=O)O)C(=O)N[C@@H](CC(N)=O)C(=O)N[C@@H]([C@@H](C)O)C(=O)N[C@@H](C)C(=O)N[C@@H]([C@@H](C)O)C(=O)N1)[C@@H](C)O)C(=O)N1CCC[C@H]1C(=O)N[C@@H](CO)C(=O)N[C@@H](CO)C(=O)N[C@H](C(=O)N[C@@H](CC(N)=O)C(=O)N[C@H](C(=O)NCC(=O)N1CCC[C@H]1C(=O)N[C@@H](CC(N)=O)C(=O)N[C@H](C(=O)N1CCC[C@H]1C(N)=O)[C@@H](C)O)C(C)C)[C@@H](C)O
B4: N^ε1-[(4S)-4-carboxy-4-[[(4S)-4-carboxy-4-(19-carboxynonadecanoylamino)butanoyl]amino]butanoyl]-[Glu14,Arg17,Pro21,Pro27,Pro34,Glu35]-h-amylin (peptide)
peptide: K([γGlu-γGlu-C20 diacid])CNTATCATQRLAEFLRHSSPNFGAIPSSTNVGPETY-NH2
modifications: disulfide 2-7; N-terminus assumed
SMILES: CC[C@H](C)[C@H](NC(=O)[C@H](C)NC(=O)CNC(=O)[C@H](Cc1ccccc1)NC(=O)[C@H](CC(N)=O)NC(=O)[C@@H]1CCCN1C(=O)[C@H](CO)NC(=O)[C@H](CO)NC(=O)[C@H](Cc1c[nH]cn1)NC(=O)[C@H](CCCNC(=N)N)NC(=O)[C@H](CC(C)C)NC(=O)[C@H](Cc1ccccc1)NC(=O)[C@H](CCC(=O)O)NC(=O)[C@H](C)NC(=O)[C@H](CC(C)C)NC(=O)[C@H](CCCNC(=N)N)NC(=O)[C@H](CCC(N)=O)NC(=O)[C@@H](NC(=O)[C@H](C)NC(=O)[C@@H]1CSSC[C@H](NC(=O)[C@@H](N)CCCCNC(=O)CC[C@H](NC(=O)CC[C@H](NC(=O)CCCCCCCCCCCCCCCCCCC(=O)O)C(=O)O)C(=O)O)C(=O)N[C@@H](CC(N)=O)C(=O)N[C@@H]([C@@H](C)O)C(=O)N[C@@H](C)C(=O)N[C@@H]([C@@H](C)O)C(=O)N1)[C@@H](C)O)C(=O)N1CCC[C@H]1C(=O)N[C@@H](CO)C(=O)N[C@@H](CO)C(=O)N[C@H](C(=O)N[C@@H](CC(N)=O)C(=O)N[C@H](C(=O)NCC(=O)N1CCC[C@H]1C(=O)N[C@@H](CCC(=O)O)C(=O)N[C@H](C(=O)N[C@@H](Cc1ccc(O)cc1)C(N)=O)[C@@H](C)O)C(C)C)[C@@H](C)O
B5: N^ε1-[(4S)-4-carboxy-4-[[(4S)-4-carboxy-4-(19-carboxynonadecanoylamino)butanoyl]amino]butanoyl]-[Glu14,Arg17,Pro21,Pro27,Arg34,Glu35]-h-amylin (peptide)
peptide: K([γGlu-γGlu-C20 diacid])CNTATCATQRLAEFLRHSSPNFGAIPSSTNVGRETY-NH2
modifications: disulfide 2-7; N-terminus assumed
SMILES: CC[C@H](C)[C@H](NC(=O)[C@H](C)NC(=O)CNC(=O)[C@H](Cc1ccccc1)NC(=O)[C@H](CC(N)=O)NC(=O)[C@@H]1CCCN1C(=O)[C@H](CO)NC(=O)[C@H](CO)NC(=O)[C@H](Cc1c[nH]cn1)NC(=O)[C@H](CCCNC(=N)N)NC(=O)[C@H](CC(C)C)NC(=O)[C@H](Cc1ccccc1)NC(=O)[C@H](CCC(=O)O)NC(=O)[C@H](C)NC(=O)[C@H](CC(C)C)NC(=O)[C@H](CCCNC(=N)N)NC(=O)[C@H](CCC(N)=O)NC(=O)[C@@H](NC(=O)[C@H](C)NC(=O)[C@@H]1CSSC[C@H](NC(=O)[C@@H](N)CCCCNC(=O)CC[C@H](NC(=O)CC[C@H](NC(=O)CCCCCCCCCCCCCCCCCCC(=O)O)C(=O)O)C(=O)O)C(=O)N[C@@H](CC(N)=O)C(=O)N[C@@H]([C@@H](C)O)C(=O)N[C@@H](C)C(=O)N[C@@H]([C@@H](C)O)C(=O)N1)[C@@H](C)O)C(=O)N1CCC[C@H]1C(=O)N[C@@H](CO)C(=O)N[C@@H](CO)C(=O)N[C@H](C(=O)N[C@@H](CC(N)=O)C(=O)N[C@H](C(=O)NCC(=O)N[C@@H](CCCNC(=N)N)C(=O)N[C@@H](CCC(=O)O)C(=O)N[C@H](C(=O)N[C@@H](Cc1ccc(O)cc1)C(N)=O)[C@@H](C)O)C(C)C)[C@@H](C)O

The binders below were run against T1, human amylin 3(a) receptor (human calcitonin receptor co-expressed with RAMP-3) (human, UniProt P30988 25-474; O60896 24-148, limits assumed) (assay: cell-based or functional assay).
T1 sequence (looked up) 1: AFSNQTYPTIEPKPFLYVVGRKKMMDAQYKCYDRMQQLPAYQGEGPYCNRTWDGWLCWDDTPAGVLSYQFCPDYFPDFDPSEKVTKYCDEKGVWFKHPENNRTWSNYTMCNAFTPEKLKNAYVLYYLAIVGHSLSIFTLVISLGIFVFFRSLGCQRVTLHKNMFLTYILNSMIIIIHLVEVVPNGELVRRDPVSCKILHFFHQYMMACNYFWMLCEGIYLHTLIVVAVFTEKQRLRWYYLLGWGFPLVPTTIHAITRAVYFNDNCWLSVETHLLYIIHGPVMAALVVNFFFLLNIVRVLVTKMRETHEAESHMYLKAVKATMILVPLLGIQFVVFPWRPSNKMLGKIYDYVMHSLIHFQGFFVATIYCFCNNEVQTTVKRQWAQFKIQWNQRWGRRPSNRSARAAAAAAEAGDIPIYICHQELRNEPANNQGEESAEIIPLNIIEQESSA
T1 sequence (looked up) 2: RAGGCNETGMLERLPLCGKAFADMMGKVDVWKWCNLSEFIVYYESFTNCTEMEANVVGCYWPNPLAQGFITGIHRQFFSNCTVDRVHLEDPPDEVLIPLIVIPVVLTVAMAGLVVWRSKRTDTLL

Binder | hAmylin-R funct. EC50
B1 | 405 pM
B2 | 105 pM
B3 | 52 pM
B4 | 225 pM
B5 | 703 pM

The binders below were run against T2, human calcitonin receptor (human, UniProt P30988 25-474) (assay: cell-based or functional assay).
T2 sequence (looked up): T1 sequence (looked up) 1

Binder | Ratio hCT/hAmylin funct. | hCTR funct. EC50
B1 | 6.3 | 2540 pM
B2 | 0.9 | 90 pM
B3 | 0.8 | 40 pM
B4 | 10.5 | 2360 pM
B5 | 10.6 | 7430 pM

The binders below were run against T1, human amylin 3(a) receptor (human …) (assay: SPA competition binding, membranes of Amylin 3(a)/CRE-luc BHK cells, displacement of 125I-rat amylin (Assay (V))).
Description: The binding assay was performed using scintillation proximity assay (SPA) beads (RPNQ0001) from PerkinElmer and cell membranes from the Amylin 3(a)/CRE-luc cells (as described in Assay (II)) were used. Membranes were prepared in the following way; the cells were rinsed with PBS and incubated with Versene for approximately 5 min before harvesting. The cells were flushed with PBS and the cell-suspension was centrifuged for 5 min at 1000 rpm. Cells were homogenized (ultrathurrax) in a buffer containing 20 mM Na-HEPES and 10 mM EDTA (pH 7.4) and centrifuged at 20.000 rpm for 15 min. The resulting pellet was resuspended, homogenized and centrifuged (20.000 rpm, 15 min) in a buffer containing 20 mM Na-HEPES and 0.1 mM EDTA (pH 7.4, buffer 2). The resulting pellet was resuspended in buffer 2 and protein concentration was measured (BCA protein Assay, Pierce). The homogenate was kept cold during the whole procedure. The membranes were kept at −80° C. until use. The assay was performed in a 384 well Optiplate (PerkinElmer) in a total volume of 40 ul. Membranes were mixed with SPA beads. Final concentration of membranes 35 ng/μL final and SPA beads was 0.05 mg/well. Test-compounds were dissolved in DMSO and further diluted in assay buffer (50 mM Hepes, pH 7.4, 1 mM CaCl2, 5 mM MgCl₂, 0.1% OA and 0.02% Tween20). […] The final mixture was incubated with shaking at 400 rpm for 120 min at 25° C. prior to centrifugation (1500 rpm, 10 min). Samples were analyzed on TopCounter™ (Packard). The IC₅₀ was calculated using (one site binding competition analysis) GraphPad Prism5 as a measure of receptor affinity.

Binder | IC50
B1 | 0.387 nM
B2 | 0.214 nM
B3 | 0.131 nM
B4 | 0.121 nM
B5 | 0.957 nM
